# Data: patent US20200024610
# Legend:
# Assay in all cases: cell_activity
# [1] = tested on: TALEN 5' monomer for SEQ 34 site (synthetic construct); conditions: pair with p4; corn protoplasts; unmethylated region
# [2] = tested on: TALEN 3' monomer for SEQ 93 site (synthetic construct); conditions: pair with p3; corn protoplasts; unmethylated region
# [3] = tested on: TALEN 5' monomer for SEQ 35 site (synthetic construct); conditions: pair with p2; corn protoplasts; unmethylated region
# [4] = tested on: TALEN 3' monomer for SEQ 94 site (synthetic construct); conditions: pair with p1; corn protoplasts; unmethylated region
sequence,measurement,setting,value
TCGTGTGACTGCTCCCAAA (double strand) [TALEN site 34],activity (% integration),[1],7
TCTACTAAAGAGGTAGCAC (double strand) [TALEN site 93],activity (% integration),[2],7
TCTCCTATCATAACGTTTG (double strand) [TALEN site 35],activity (% integration),[3],16
TGAGTTTGAGACCCACCTG (double strand) [TALEN site 94],activity (% integration),[4],16
